Test results as given in patent US20130064834A1 (published 2013).

T1: his-tagged Syrian golden hamster (Mesocricetus auratus) PCSK9 (Syrian golden hamster (Mesocricetus …))
T1 construct: also called maPCSK9-h; maPCSK9
T1 chain: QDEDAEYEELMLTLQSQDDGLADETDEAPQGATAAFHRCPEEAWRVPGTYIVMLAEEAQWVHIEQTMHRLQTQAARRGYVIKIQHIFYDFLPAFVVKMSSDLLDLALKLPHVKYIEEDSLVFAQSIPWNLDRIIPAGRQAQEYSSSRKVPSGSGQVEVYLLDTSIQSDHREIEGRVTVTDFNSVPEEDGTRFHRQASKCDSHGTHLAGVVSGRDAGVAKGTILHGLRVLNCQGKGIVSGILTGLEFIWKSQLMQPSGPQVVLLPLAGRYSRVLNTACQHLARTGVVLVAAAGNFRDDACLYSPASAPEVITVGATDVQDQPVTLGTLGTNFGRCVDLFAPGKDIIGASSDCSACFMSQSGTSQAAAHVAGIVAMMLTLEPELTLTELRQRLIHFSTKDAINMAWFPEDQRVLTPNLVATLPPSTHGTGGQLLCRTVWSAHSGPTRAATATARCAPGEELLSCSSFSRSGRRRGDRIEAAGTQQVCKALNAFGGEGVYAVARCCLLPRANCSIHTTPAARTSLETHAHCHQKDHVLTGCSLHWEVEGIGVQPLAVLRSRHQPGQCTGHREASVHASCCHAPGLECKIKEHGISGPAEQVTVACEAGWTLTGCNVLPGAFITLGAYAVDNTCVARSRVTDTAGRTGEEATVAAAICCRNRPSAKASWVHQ


Experiments:
[1] = target: T2, cynomolgus monkey (Macaca fascicularis) PCSK9, myc-myc-his tagged (cynomolgus monkey (Macaca fascicularis), UniProt A8T662 31-692 (Macaca nemestrina entry), limits assumed); test: competition ELISA vs EGF-A, pH 7.2
T2 construct: also called mfPCSK9-mmh; mfPCSK9
Experimental: (§1) Briefly, hLDLR-ecto, hLDLR EGF-A-hFc or hLDLR EGF-AB-hFc, each at 2 μg/ml, was coated on a 96-well plate in PBS buffer overnight at 4° C., and nonspecific binding sites blocked with BSA. […] The equilibrated sample solutions were transferred to receptor or receptor fragment coated plates.

Human PCSK9-myc-myc-his [2] = target: T3, Human PCSK9-myc-myc-his (human, UniProt Q8NBP7 31-692); test: competition ELISA vs EGF-A, pH 7.2
T3 construct: also called hPCSK9-mmh; hPCSK9
Experimental: as §1

[3] = target: T4, mouse PCSK9, myc-myc-his tagged (mouse, UniProt Q80W65 35-694); test: competition ELISA vs EGF-A, pH 7.2
T4 construct: also called mPCSK9-mmh; mPCSK9
Target sequence in this assay (Q80W65 35-694 limits assumed): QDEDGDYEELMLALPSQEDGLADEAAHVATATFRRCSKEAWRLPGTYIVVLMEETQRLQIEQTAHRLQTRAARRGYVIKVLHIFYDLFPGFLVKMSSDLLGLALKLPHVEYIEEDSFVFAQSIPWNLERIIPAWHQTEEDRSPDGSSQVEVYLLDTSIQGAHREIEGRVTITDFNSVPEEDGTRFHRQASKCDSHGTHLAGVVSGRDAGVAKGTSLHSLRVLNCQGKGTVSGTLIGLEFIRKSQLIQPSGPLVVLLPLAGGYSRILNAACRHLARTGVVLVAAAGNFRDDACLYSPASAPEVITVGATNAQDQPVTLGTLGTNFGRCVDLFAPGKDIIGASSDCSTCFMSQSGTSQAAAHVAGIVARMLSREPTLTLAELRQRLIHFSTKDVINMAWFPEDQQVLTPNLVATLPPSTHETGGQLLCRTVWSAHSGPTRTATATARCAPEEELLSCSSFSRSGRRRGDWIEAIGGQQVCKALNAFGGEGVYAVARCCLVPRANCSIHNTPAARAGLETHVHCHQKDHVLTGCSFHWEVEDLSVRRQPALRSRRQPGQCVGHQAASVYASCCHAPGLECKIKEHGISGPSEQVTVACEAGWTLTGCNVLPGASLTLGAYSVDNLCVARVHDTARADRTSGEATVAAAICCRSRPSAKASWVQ
Experimental: as §1

[4] = target: T5, rat (Rattus norvegicus) PCSK9, myc-myc-his tagged (rat (Rattus norvegicus), UniProt P59996 31-691); test: competition ELISA vs EGF-A, pH 7.2
T5 construct: also called rPCSK9-mmh; rPCSK9
Experimental: as §1

[5] = target: T6, tagged rhesus monkey (Macaca mulata) PCSK9 (rhesus monkey (Macaca mulata), UniProt A8T666 31-692); test: competition ELISA vs EGF-A, pH 7.2
T6 construct: also called mmPCSK9-mmh; mmPCSK9
Experimental: as §1

[6] = target: T1, his-tagged Syrian golden hamster …; test: competition ELISA vs EGF-A, pH 7.2
Experimental: as §1

[7] = target: T2, cynomolgus monkey (Macaca fascicularis) …; test: SPR, mAb amine-coupled, 37C, pH 7.4
Text: (§2) Briefly, mAbs were immobilized onto BIACORE™ CM5 sensor chips via amine coupling.

Human PCSK9-myc-myc-his [8] = target: T3, Human PCSK9-myc-myc-his; test: SPR, mAb amine-coupled, 37C, pH 7.4
Text: as §2

hPCSK9(D374Y)-mmh [9] = target: T7, hPCSK9(D374Y)-mmh (human, UniProt Q8NBP7 31-692); test: SPR, mAb amine-coupled, 37C, pH 7.4
T7 construct: also called hPCSK(D374Y)-mmh
Text: as §2

hPCSK9(D129G) = target: T8, hPCSK9(D129G) (human, UniProt Q8NBP7 31-692); test: ELISA, mAb coated, variant 0-5 nM
T8 construct: mmh-tagged variant hPCSK9
Experimental: (§3) Anti-PCSK9 mAbs were coated on a 96-well plate overnight at 4° C.

hPCSK9(R215E) = target: T9, hPCSK9(R215E) (human, UniProt Q8NBP7 31-692); test: ELISA, mAb coated, variant 0-5 nM
T9 construct: mmh-tagged variant hPCSK9
Experimental: as §3

hPCSK9(D192R) = target: T10, hPCSK9(D192R) (human, UniProt Q8NBP7 31-692); test: ELISA, mAb coated, variant 0-5 nM
T10 construct: mmh-tagged variant hPCSK9
Experimental: as §3

hPCSK9(R237E) = target: T11, hPCSK9(R237E) (human, UniProt Q8NBP7 31-692); test: ELISA, mAb coated, variant 0-5 nM
T11 construct: mmh-tagged variant hPCSK9
Experimental: as §3

hPCSK9(E366K, V380M) = target: T12, hPCSK9(E366K, V380M) (human, UniProt Q8NBP7 31-692); test: ELISA, mAb coated, variant 0-5 nM
T12 construct: mmh-tagged variant hPCSK9
Experimental: as §3

hPCSK9(R194E) = target: T13, hPCSK9(R194E) (human, UniProt Q8NBP7 31-692); test: ELISA, mAb coated, variant 0-5 nM
T13 construct: mmh-tagged variant hPCSK9
Experimental: as §3

hPCSK9(T162R) = target: T14, hPCSK9(T162R) (human, UniProt Q8NBP7 31-692); test: ELISA, mAb coated, variant 0-5 nM
T14 construct: mmh-tagged variant hPCSK9
Experimental: as §3

Human PCSK9-myc-myc-his [10] = target: T3, Human PCSK9-myc-myc-his; test: competition ELISA vs EGF-A, pH 5.5
Experimental: as §1

[11] = target: T4, mouse PCSK9, myc-myc-his tagged; test: competition ELISA vs EGF-A, pH 5.5
Experimental: as §1

[12] = target: T5, rat (Rattus norvegicus) PCSK9, …; test: competition ELISA vs EGF-A, pH 5.5
Experimental: as §1

[13] = target: T6, tagged rhesus monkey (Macaca mulata) …; test: competition ELISA vs EGF-A, pH 5.5
Experimental: as §1

[14] = target: T1, his-tagged Syrian golden hamster …; test: competition ELISA vs EGF-A, pH 5.5
Experimental: as §1

[15] = target: T2, cynomolgus monkey (Macaca fascicularis) …; test: cell-based or functional assay
hPCSK9(D374Y)-mmh [16] = target: T7, hPCSK9(D374Y)-mmh; test: cell-based or functional assay
[17] = target: T1, his-tagged Syrian golden hamster …; test: cell-based or functional assay

T6 sequence (A8T666 31-692 limits assumed): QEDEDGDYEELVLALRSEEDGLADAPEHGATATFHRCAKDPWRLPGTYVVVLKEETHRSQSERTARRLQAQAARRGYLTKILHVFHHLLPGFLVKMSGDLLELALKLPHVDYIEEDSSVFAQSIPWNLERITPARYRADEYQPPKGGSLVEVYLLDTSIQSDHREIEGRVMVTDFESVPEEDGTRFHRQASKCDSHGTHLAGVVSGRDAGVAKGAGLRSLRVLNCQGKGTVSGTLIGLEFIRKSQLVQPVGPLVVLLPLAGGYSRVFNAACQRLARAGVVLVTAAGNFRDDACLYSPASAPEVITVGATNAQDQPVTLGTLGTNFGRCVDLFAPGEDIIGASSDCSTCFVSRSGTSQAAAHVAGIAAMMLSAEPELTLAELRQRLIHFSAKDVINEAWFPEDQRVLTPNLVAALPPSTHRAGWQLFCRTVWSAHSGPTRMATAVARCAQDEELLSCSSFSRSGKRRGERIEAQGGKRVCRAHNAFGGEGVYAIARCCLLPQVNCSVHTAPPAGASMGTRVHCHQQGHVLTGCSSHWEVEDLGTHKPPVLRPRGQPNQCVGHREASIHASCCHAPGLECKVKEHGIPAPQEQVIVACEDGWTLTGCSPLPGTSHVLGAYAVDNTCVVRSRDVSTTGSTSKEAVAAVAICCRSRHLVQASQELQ
T2 sequence (A8T662 31-692 limits assumed): as the sequence (A8T666 31-692 limits assumed) above, with P607A, K639E counted along it
T5 sequence (P59996 31-691 limits assumed): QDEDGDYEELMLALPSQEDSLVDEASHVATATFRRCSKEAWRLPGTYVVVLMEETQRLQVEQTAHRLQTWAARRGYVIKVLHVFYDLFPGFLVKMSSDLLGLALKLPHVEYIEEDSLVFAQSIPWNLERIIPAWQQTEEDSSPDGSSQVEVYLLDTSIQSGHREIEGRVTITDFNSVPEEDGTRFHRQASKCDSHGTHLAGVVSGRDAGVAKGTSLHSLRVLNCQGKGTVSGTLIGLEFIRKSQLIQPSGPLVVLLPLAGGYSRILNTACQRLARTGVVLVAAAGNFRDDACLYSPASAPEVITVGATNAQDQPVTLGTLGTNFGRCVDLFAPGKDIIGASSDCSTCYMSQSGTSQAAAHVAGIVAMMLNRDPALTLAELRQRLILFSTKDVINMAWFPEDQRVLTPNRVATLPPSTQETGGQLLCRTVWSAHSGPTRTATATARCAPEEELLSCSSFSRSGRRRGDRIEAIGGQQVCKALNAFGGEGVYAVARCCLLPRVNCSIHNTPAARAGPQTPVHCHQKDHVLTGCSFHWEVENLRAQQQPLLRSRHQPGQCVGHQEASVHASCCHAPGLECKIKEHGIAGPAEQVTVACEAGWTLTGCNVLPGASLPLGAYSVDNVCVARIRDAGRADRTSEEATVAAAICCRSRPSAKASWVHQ

| Binder | IC50 [1] [nM] | IC50 (Human PCSK9-myc-myc-his [2]) [nM] | IC50 [3] [nM] | IC50 [4] [nM] | IC50 [5] [nM] | IC50 [6] [nM] | Kd [7] [nM] | T1/2 [7] [min] | Kd (Human PCSK9-myc-myc-his [8]) [nM] | T1/2 (Human PCSK9-myc-myc-his [8]) [min] | Kd (hPCSK9(D374Y)-mmh [9]) [nM] | T1/2 (hPCSK9(D374Y)-mmh [9]) [min] | OD (hPCSK9(D129G)) [od] | OD (hPCSK9(R215E)) [od] | OD (hPCSK9(D192R)) [od] | OD (hPCSK9(R237E)) [od] | OD (hPCSK9(E366K, V380M)) [od] | OD (hPCSK9(R194E)) [od] | OD (hPCSK9(T162R)) [od] | IC50 (Human PCSK9-myc-myc-his [10]) [nM] | further results |
| --- | --- | --- | --- | --- | --- | --- | --- | --- | --- | --- | --- | --- | --- | --- | --- | --- | --- | --- | --- | --- | --- |
| H1H316P (antibody, V domains shown, Fully human mAb made in CHO cells; also called mAb316P) VH: EVQLVESGGGLVQPGGSLRLSCAASGFTFNNYAMNWVRQAPGKGLDWVSTISGSGGTTNYADSVKGRFIISRDSSKHTLYLQMNSLRAEDTAVYYCAKDSNWGNFDLWGRGTLVTVSS VL: not shown | 0.075 | < 0.125 | 0.305 | 2.66 | < 0.25 | 0.349 | 3.77 | 11 | 4 | 9 | 6.66 | 4 | > 1.5 | > 1.5 | > 1.5 | > 1.5 | > 1.5 | > 1.5 | > 1.5 | < 0.125 | IC50 [11]: 0.991 nM; IC50 [12]: 42.9 nM; IC50 [13]: < 0.25 nM; IC50 [14]: 1.3 nM; IC50, LDL uptake in HepG2 cells [15]: 14.7 nM; IC50, LDL uptake in HepG2 cells (hPCSK9(D374Y)-mmh [16]): 2.1 nM; IC50, LDL uptake in HepG2 cells [17]: 14.4 nM |
| H1M300N (antibody, V domains shown, Fully human version made in CHO cells) VH: EMQLVESGGGLVQPGGSLRLSCAASGFTFSSHWMKWVRQAPGKGLEWVANINQDGSEKYYVDSVKGRFTISRDNAKNSLFLQMNSLRAEDTAVYYCARDIVLMVYDMDYYYYGMDVWGQGTTVTVSS VL: not shown | 0.473 | 0.182 | > 100 | > 100 | 0.46 | > 100 | 4.81 | 8 | 2.47 | 20 | 2.61 | 14 | > 1.5 | > 1.5 | > 1.5 | > 1.5 | 0.7 to 1.5 | > 1.5 | > 1.5 | 0.223 | IC50 [11]: > 100 nM; IC50 [12]: > 100 nM; IC50 [13]: 3.7 nM; IC50 [14]: > 100 nM; IC50, LDL uptake in HepG2 cells [15]: 13.4 nM; IC50, LDL uptake in HepG2 cells (hPCSK9(D374Y)-mmh [16]): 11 nM; IC50, LDL uptake in HepG2 cells [17]: > 500 nM |
